Experimental data from the supplement of paper PMC10065799, “High-throughput profiling of sequence recognition by tyrosine kinases and SH2 domains using bacterial peptide display” (eLife, 2023).

Key:
SHP2-C SH2 = experiment: SH2 binding enrichment of the phosphorylated peptide, bacterial display (enrichment ratio); higher = better substrate or ligand; peptides without Tyr show the background
c-Src SH2 = experiment: as above
Grb2 SH2 = Grb2 SH2 (UniProt P62993); experiment: as above
Fyn = Fyn (UniProt P06241); experiment: phosphorylation enrichment, bacterial display (enrichment ratio); higher = better substrate or ligand; peptides without Tyr show the background
Sequence of Fyn (P06241 whole entry, looked up): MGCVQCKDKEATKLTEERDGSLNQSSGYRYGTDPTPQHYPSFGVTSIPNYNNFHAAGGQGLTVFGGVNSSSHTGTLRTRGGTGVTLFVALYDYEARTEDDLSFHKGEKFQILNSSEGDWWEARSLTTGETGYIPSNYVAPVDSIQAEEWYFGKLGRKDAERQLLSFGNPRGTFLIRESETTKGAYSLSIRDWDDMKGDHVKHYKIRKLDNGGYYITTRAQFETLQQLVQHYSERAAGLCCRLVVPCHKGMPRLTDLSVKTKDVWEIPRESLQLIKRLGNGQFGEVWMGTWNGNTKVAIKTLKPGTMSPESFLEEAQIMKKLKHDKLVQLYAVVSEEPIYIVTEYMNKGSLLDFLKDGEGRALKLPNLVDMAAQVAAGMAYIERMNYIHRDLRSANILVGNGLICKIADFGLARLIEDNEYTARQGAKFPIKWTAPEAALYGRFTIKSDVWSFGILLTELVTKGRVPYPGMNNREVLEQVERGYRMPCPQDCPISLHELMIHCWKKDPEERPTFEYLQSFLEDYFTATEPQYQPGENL

Jak2 = Jak2 (UniProt O60674); experiment: as above
FGFR1 = FGFR1 (UniProt P11362); experiment: as above
Fer (mouse) = experiment: as above
c-Abl (mouse) = experiment: as above
Hck = Hck (UniProt P08631); experiment: as above
Sequence of Hck (P08631 whole entry, looked up): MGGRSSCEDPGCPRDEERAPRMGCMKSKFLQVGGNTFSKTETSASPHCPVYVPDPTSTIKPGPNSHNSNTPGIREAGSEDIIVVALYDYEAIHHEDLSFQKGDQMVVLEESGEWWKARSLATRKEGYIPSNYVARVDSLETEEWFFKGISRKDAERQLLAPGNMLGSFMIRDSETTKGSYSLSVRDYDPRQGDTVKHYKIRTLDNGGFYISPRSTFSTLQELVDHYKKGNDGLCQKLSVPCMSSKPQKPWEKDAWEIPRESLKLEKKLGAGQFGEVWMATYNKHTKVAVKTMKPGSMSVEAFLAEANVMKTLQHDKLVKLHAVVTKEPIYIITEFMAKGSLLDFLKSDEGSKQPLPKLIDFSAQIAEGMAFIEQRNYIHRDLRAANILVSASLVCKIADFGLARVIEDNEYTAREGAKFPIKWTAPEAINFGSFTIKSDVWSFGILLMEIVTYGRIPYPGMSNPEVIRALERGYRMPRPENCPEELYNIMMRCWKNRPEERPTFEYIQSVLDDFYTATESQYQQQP

AncSZ = experiment: as above
FGFR3 = FGFR3 (UniProt P22607); experiment: as above
EPHB2 = EPHB2 (UniProt P29323); experiment: as above
Sequence of EPHB2 (P29323 whole entry, looked up): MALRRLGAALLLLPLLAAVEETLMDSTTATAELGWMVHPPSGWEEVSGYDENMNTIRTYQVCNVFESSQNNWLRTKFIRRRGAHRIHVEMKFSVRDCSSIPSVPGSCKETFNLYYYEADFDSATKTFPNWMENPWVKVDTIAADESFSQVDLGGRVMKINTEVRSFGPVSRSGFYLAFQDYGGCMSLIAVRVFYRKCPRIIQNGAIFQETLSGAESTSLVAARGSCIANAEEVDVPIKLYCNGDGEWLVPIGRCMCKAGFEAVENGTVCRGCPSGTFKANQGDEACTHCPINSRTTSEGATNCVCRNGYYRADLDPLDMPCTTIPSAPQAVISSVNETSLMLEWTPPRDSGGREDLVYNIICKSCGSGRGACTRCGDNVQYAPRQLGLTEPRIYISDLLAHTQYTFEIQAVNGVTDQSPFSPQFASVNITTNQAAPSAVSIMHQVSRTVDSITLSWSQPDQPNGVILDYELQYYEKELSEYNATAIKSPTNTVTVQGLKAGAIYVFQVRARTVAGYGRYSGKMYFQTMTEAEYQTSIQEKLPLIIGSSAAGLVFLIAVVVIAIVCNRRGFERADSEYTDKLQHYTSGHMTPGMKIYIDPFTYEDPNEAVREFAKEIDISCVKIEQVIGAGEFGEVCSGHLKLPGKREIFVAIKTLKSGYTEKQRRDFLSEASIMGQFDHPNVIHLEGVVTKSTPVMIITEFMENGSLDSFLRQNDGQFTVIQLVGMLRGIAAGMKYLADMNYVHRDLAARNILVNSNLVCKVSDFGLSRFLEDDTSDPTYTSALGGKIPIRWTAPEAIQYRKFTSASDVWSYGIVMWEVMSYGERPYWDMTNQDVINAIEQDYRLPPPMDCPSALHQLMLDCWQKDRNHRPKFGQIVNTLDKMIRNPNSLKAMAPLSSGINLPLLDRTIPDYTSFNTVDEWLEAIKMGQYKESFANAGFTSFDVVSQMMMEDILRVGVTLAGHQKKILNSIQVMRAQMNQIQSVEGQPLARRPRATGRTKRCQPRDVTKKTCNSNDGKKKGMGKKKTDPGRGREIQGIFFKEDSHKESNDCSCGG

c-Src = experiment: as above
MERTK = MERTK (UniProt Q12866); experiment: as above
Sequence of MERTK (Q12866 whole entry, looked up): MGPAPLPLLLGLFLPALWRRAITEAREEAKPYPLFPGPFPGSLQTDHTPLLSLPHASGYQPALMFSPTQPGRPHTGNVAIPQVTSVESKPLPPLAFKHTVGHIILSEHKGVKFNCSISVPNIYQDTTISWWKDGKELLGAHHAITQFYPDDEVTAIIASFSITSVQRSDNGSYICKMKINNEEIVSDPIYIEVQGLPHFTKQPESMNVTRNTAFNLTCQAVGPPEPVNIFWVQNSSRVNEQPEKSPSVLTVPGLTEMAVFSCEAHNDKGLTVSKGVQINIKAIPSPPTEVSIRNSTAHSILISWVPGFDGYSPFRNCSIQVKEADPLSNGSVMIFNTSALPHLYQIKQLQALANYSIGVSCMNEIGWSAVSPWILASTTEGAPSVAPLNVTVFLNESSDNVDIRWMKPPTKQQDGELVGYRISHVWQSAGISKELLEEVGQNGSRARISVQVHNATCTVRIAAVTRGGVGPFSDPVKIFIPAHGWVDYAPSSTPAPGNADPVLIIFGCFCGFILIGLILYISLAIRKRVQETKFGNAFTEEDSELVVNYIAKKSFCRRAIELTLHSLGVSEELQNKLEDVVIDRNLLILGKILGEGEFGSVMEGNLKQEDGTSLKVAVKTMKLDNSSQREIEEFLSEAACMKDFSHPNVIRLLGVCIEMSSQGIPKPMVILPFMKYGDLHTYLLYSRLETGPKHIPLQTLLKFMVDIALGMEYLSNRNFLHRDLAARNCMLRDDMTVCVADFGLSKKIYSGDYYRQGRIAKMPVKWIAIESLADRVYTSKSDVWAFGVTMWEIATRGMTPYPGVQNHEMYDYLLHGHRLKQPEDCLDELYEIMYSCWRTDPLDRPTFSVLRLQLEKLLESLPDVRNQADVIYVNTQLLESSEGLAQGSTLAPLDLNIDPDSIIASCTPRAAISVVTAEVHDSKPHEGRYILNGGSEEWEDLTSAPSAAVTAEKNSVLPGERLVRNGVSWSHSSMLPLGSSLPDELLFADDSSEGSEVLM

Fes = Fes (UniProt P07332); experiment: as above
Sequence of Fes (P07332 whole entry, looked up): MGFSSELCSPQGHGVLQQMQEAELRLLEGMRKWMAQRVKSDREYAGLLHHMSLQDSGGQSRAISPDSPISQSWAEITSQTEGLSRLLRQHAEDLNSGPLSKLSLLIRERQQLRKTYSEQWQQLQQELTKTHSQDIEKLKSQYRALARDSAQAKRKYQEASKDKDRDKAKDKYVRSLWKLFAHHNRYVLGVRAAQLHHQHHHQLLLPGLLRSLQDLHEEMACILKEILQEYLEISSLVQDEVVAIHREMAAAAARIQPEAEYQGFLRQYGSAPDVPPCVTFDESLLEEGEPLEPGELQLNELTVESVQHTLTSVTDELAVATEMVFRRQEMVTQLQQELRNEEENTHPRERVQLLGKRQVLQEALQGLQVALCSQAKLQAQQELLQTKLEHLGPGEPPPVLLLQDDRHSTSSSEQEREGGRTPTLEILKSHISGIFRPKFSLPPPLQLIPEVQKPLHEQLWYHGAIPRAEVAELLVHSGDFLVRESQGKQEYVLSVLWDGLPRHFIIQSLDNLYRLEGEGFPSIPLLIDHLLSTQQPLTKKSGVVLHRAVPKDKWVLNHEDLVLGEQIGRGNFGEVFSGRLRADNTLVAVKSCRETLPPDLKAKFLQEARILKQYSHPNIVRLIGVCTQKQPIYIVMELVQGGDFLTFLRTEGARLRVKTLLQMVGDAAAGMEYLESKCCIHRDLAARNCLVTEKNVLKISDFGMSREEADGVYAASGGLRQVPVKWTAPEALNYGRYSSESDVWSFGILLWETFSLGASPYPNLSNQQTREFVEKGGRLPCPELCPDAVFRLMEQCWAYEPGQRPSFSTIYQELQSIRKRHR

EPHB1 = EPHB1 (UniProt P54762); experiment: as above
Sequence of EPHB1 (P54762 whole entry, looked up, the tested form may be a part): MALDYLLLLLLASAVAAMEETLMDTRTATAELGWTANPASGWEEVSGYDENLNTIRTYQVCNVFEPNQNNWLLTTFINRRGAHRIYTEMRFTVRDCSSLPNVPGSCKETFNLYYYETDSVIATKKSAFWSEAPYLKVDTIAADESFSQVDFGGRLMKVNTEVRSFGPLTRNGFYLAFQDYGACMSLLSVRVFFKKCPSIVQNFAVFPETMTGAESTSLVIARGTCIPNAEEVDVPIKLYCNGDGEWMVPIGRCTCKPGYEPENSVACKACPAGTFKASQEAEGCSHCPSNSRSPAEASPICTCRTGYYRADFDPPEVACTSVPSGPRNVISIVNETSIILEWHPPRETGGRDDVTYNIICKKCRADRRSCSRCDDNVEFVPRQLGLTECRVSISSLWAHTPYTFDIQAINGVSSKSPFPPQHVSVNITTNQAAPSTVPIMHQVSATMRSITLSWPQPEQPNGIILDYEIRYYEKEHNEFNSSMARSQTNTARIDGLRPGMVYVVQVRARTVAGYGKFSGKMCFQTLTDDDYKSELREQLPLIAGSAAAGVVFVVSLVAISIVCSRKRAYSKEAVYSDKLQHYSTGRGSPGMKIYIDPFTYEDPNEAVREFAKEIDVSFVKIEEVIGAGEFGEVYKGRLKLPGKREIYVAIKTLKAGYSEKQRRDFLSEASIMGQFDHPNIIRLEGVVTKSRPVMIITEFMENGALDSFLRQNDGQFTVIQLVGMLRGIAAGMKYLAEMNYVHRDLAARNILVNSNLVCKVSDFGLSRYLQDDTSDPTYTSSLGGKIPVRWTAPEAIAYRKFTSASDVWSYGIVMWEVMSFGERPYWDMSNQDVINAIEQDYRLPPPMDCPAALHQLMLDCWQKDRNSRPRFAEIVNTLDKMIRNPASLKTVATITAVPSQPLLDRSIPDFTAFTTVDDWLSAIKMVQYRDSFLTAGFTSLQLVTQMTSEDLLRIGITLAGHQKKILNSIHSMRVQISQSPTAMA
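For SH2 binding enrichment of the phosphorylated peptide, bacterial display in this document: peptide library displayed on the E. coli surface as eCPX fusions, selected cells deep-sequenced, score is each peptide's frequency after selection divided by its frequency in the input.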
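For phosphorylation enrichment, bacterial display in this document: 11-residue human phosphosite peptides and single-mutation variants displayed on the E. coli surface, counted by deep sequencing, each peptide's frequency after selection divided by its frequency in the unselected input library; frequency after pTyr selection over input frequency; kinase dosed for 20-30% of maximal phosphorylation in three min.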

| SH2 binding enrichment (SHP2-C SH2) | SH2 binding enrichment (c-Src SH2) | SH2 binding enrichment (Grb2 SH2) | Sequence | phosphorylation enrichment (Fyn) | phosphorylation enrichment (Jak2) | phosphorylation enrichment (FGFR1) | phosphorylation enrichment (Fer (mouse)) | phosphorylation enrichment (c-Abl (mouse)) | phosphorylation enrichment (Hck) | phosphorylation enrichment (AncSZ) | phosphorylation enrichment (FGFR3) | phosphorylation enrichment (EPHB2) | phosphorylation enrichment (c-Src) | phosphorylation enrichment (MERTK) | phosphorylation enrichment (Fes) | phosphorylation enrichment (EPHB1) |
| --- | --- | --- | --- | --- | --- | --- | --- | --- | --- | --- | --- | --- | --- | --- | --- | --- |
| 0.733 | 0.548 | 0.831 | ASLEAYCKHKY [RXRA_Y403] | 0.503 | 0.799 | 0.472 | 0.424 | 0.727 | 0.455 | 0.964 | 0.658 | 0.501 | 0.411 | 0.392 | 1.01 | 0.53 |
| 0.562 | 0.444 | 0.767 | ATPKGYERDAS [OTC_Y223_P225R] | 0.442 | 0.551 | 0.462 | 0.518 | 0.421 | 0.399 | 0.591 | 0.471 | 0.522 | 0.369 | 0.447 | 0.68 | 0.358 |
| 0.594 | 0.622 | 0.965 | ATRKAYGQALA [TKT_Y321] | 0.335 | 0.481 | 0.391 | 0.36 | 0.415 | 0.412 | 0.468 | 0.395 | 0.348 | 0.366 | 0.432 | 0.612 | 0.31 |
| 0.988 | 0.723 | 0.928 | AVRFIYTIDGS [DCX_Y105_G100A_YF] | 1.56 | 1.27 | 0.453 | 0.529 | 0.706 | 0.67 | 1.32 | 0.697 | 0.552 | 1.55 | 0.424 | 1.28 | 0.574 |
| 1.1 | 1 | 1.05 | AWVARYIFKRL [LPCAT3_Y348] | 0.502 | 1 | 0.351 | 0.482 | 0.748 | 0.48 | 1.26 | 0.604 | 0.472 | 0.346 | 0.424 | 1.25 | 0.555 |
| 1.13 | 0.519 | 0.835 | CEDGTYSPEIS [PTDSS1_Y424] | 0.512 | 1.33 | 0.5 | 0.589 | 0.838 | 0.595 | 1.2 | 0.824 | 0.578 | 0.663 | 0.486 | 1.33 | 0.649 |
| 1.19 | 0.767 | 1.49 | CEHRGYLFLAI [TEK_Y897_YF] | 0.443 | 1.01 | 0.545 | 0.508 | 0.813 | 0.45 | 0.951 | 0.628 | 0.69 | 0.496 | 0.37 | 0.906 | 0.502 |
| 0.754 | 0.492 | 0.619 | CERLPYDANKW [FLT1_Y815_S818N] | 0.506 | 1.01 | 0.422 | 0.615 | 0.804 | 0.43 | 1.11 | 0.817 | 0.602 | 0.477 | 0.415 | 1.16 | 0.626 |
| 0.971 | 2.57 | 0.828 | CLAKMYYSAVE [CP_Y539_D544E] | 0.563 | 0.831 | 0.861 | 1.35 | 0.651 | 0.606 | 1.04 | 0.885 | 0.901 | 0.725 | 2.82 | 1.19 | 0.863 |
| 0.895 | 0.744 | 1.03 | DEEPPHRGPFC [SASH1_Y551_Y551H] | 0.489 | 0.795 | 0.645 | 0.528 | 0.609 | 0.542 | 1.01 | 0.651 | 0.783 | 0.475 | 0.41 | 1.06 | 0.619 |

More lines, now with the values behind:

| Sequence | SH2 binding enrichment (SHP2-C SH2) | SH2 binding enrichment (c-Src SH2) | SH2 binding enrichment (Grb2 SH2) | phosphorylation enrichment (Fyn) | phosphorylation enrichment (Jak2) | phosphorylation enrichment (FGFR1) | phosphorylation enrichment (Fer (mouse)) | phosphorylation enrichment (c-Abl (mouse)) | phosphorylation enrichment (Hck) | phosphorylation enrichment (AncSZ) | phosphorylation enrichment (FGFR3) | phosphorylation enrichment (EPHB2) | phosphorylation enrichment (c-Src) | phosphorylation enrichment (MERTK) | phosphorylation enrichment (Fes) | phosphorylation enrichment (EPHB1) |
| --- | --- | --- | --- | --- | --- | --- | --- | --- | --- | --- | --- | --- | --- | --- | --- | --- |
| ARQEEYSAMRD [KRAS_Y64_G60R] | 0.729 | 0.804 | 0.824 | 0.429 | 0.896 | 0.518 | 0.387 | 0.837 | 0.488 | 0.962 | 0.584 | 0.563 | 0.497 | 0.497 | 0.902 | 0.508 |
| ASMAKYYASEI [ACADSB_Y372] | 0.554 | 0.575 | 0.849 | 0.491 | 0.92 | 0.483 | 0.38 | 0.717 | 0.515 | 0.701 | 0.576 | 0.32 | 0.595 | 0.731 | 0.761 | 0.404 |
| ATGMEYLASQK [FGFR2_Y616_R612T] | 0.571 | 0.465 | 1.01 | 0.559 | 0.68 | 0.464 | 0.426 | 0.58 | 0.474 | 0.736 | 0.833 | 0.495 | 0.44 | 0.423 | 0.794 | 0.479 |
| ATQDDYVLEVR [PTPRZ1_Y2179] | 0.719 | 0.505 | 0.856 | 0.626 | 1.08 | 0.552 | 0.497 | 0.766 | 0.56 | 1.45 | 0.701 | 0.62 | 0.601 | 0.492 | 1.23 | 0.632 |
| AVAFVYYKSIG [ADGRL4_Y301] | 0.758 | 0.76 | 1.02 | 0.458 | 1.2 | 0.451 | 0.53 | 0.67 | 0.463 | 1.18 | 0.641 | 0.585 | 0.489 | 0.401 | 1.29 | 0.615 |
| AVRVFYRKCPR [EPHB2_Y194] | 0.529 | 0.417 | 0.611 | 0.464 | 0.7 | 0.428 | 0.518 | 0.78 | 0.512 | 0.948 | 0.645 | 0.463 | 0.557 | 0.517 | 0.655 | 0.345 |
| CCNHPYLINGA [CHD7_Y1256] | 0.704 | 0.541 | 0.804 | 0.57 | 0.641 | 0.443 | 0.419 | 0.538 | 0.519 | 0.651 | 0.552 | 0.495 | 2.72 | 0.461 | 0.851 | 0.352 |
| CDFKKYGKGLR [ZNF445_Y433_Y428C_YF] | 0.934 | 0.618 | 1.06 | 0.479 | 0.718 | 0.432 | 0.31 | 0.64 | 0.357 | 0.647 | 0.549 | 0.413 | 0.441 | 0.396 | 0.808 | 0.409 |
| CFTGKYTLPPG [HSPB1_Y142_R140G] | 0.377 | 0.585 | 0.592 | 0.595 | 0.908 | 0.447 | 0.521 | 0.833 | 0.519 | 1.09 | 0.75 | 0.649 | 0.429 | 0.767 | 1.25 | 0.562 |
| CFTRKYTLPPG [HSPB1_Y142] | 0.601 | 0.477 | 0.683 | 0.443 | 0.787 | 0.495 | 0.459 | 0.678 | 0.457 | 0.763 | 0.604 | 0.459 | 0.452 | 0.42 | 1.06 | 0.546 |
| CSPLLYRVIMS [OR8D4_Y132] | 0.571 | 0.393 | 0.825 | 0.527 | 0.992 | 0.611 | 0.577 | 0.851 | 0.6 | 1.22 | 0.75 | 0.695 | 0.449 | 0.507 | 1.25 | 0.691 |
| CSRHFYQLTKL [AR_Y858_R856H] | 0.821 | 0.97 | 1.04 | 0.444 | 0.969 | 0.705 | 0.615 | 0.763 | 0.464 | 1.06 | 0.662 | 0.576 | 0.422 | 0.432 | 1.17 | 0.501 |
| CTLLPYFSARV [DGKE_Y269_YF] | 0.711 | 0.523 | 0.791 | 0.453 | 1.09 | 0.518 | 0.515 | 1.11 | 0.508 | 0.987 | 0.736 | 0.615 | 0.43 | 0.424 | 1.11 | 0.613 |
| CTTIHQNFMCN [TP53_Y234_Y234Q_YF] | 1.02 | 1.12 | 1.2 | 0.435 | 0.575 | 0.459 | 0.421 | 0.497 | 0.397 | 0.9 | 0.614 | 0.497 | 0.391 | 0.377 | 0.855 | 0.421 |
| CTTIHYNFMCN [TP53_Y234_Y236F] | 1.93 | 1.84 | 1.8 | 0.436 | 0.824 | 0.509 | 0.516 | 0.661 | 0.456 | 0.861 | 0.645 | 0.485 | 0.487 | 0.405 | 0.923 | 0.428 |
| CTTIHYNFTCN [TP53_Y234_M237T_YF] | 1.83 | 1.67 | 1.96 | 0.443 | 0.704 | 0.496 | 0.426 | 0.634 | 0.414 | 0.797 | 0.593 | 0.6 | 0.441 | 0.42 | 0.866 | 0.448 |
| CVAARYMDMKG [WFIKKN2_Y93_V96M] | 0.765 | 1.39 | 0.95 | 0.439 | 0.654 | 0.36 | 0.431 | 0.542 | 0.471 | 0.755 | 0.637 | 0.428 | 0.39 | 0.446 | 0.984 | 0.394 |
| DALDNYVIRGV [PCCA_Y473] | 0.556 | 0.453 | 0.649 | 0.457 | 0.846 | 0.486 | 0.481 | 0.633 | 0.46 | 0.849 | 0.506 | 0.583 | 0.504 | 0.408 | 0.842 | 0.512 |
| DAVAVCHGKIS [SH2D1A_Y7_Y7C] | 0.539 | 0.536 | 0.71 | 0.472 | 0.774 | 0.467 | 0.467 | 0.59 | 0.458 | 0.658 | 0.628 | 0.471 | 0.406 | 0.403 | 0.745 | 0.387 |
| DEEEEYEFMNR [ERBB3_Y1197_D1194E_YF] | 0.747 | 0.637 | 0.946 | 0.512 | 0.903 | 0.572 | 0.485 | 1.1 | 0.522 | 1.16 | 0.779 | 0.76 | 0.527 | 0.462 | 1.07 | 0.62 |
| DENWFYMRAAS [RPS19_Y54_T55M] | 0.627 | 0.481 | 0.774 | 0.43 | 1.25 | 0.654 | 0.594 | 0.869 | 0.485 | 1.35 | 0.933 | 0.654 | 0.384 | 0.379 | 1.52 | 0.718 |
| DFDNLYFWDQD [ERBB2_Y1221_A1216D_YF] | 0.854 | 0.333 | 0.668 | 6.47 | 1.25 | 7.58 | 2.2 | 0.801 | 5.15 | 2.2 | 7.69 | 1.07 | 5.27 | 4.6 | 1.71 | 1.57 |
| DFDNLYYWDQD [ERBB2_Y1221_A1216D] | 0.462 | 0.453 | 0.808 | 6.81 | 1.86 | 9.53 | 3.8 | 0.973 | 5.31 | 2.68 | 9.13 | 3.3 | 6.09 | 7.57 | 1.96 | 4.08 |
